These results are taken from patent publication US20130034559A1.

Experiment [1] concerns the target cynomolgus monkey B7-H1 expressed on cells (cynomolgus monkey) (UniProt G7PSE7). Nature of the experiment: FACS, 1 µg/ml isotype control, anti-CD3-activated cynomolgus monkey T cells.
In experiment [2] the target is mouse B7-H1 on J558 cells (mouse) (UniProt Q9EP73). Nature of the experiment: FACS, 5 µg/ml isotype control, J558 cells expressing mouse B7-H1.
The target of experiment [3] is human B7-DC on 293T cells (human) (UniProt Q9BQ51). The experiment in a line: FACS, 5 µg/ml isotype control, 293T cells transfected with human B7-DC.
human B7-DC on 293T cells (human), sequence (Q9BQ51 20-273): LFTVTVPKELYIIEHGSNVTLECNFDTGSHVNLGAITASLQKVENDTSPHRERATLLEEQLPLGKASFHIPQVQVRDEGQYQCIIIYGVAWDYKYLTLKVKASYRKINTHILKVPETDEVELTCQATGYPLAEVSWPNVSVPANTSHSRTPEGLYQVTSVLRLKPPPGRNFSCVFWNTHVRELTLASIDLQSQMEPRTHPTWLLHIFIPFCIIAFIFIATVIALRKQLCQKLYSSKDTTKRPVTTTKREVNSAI
In experiment [4] the target is human B7-H1 expressed on cells (human) (UniProt Q9NZQ7). Nature of the experiment: FACS, 5 µg/ml isotype control, 293T cells transfected with human B7-H1.
human B7-H1 expressed on cells (human), sequence (Q9NZQ7 19-290): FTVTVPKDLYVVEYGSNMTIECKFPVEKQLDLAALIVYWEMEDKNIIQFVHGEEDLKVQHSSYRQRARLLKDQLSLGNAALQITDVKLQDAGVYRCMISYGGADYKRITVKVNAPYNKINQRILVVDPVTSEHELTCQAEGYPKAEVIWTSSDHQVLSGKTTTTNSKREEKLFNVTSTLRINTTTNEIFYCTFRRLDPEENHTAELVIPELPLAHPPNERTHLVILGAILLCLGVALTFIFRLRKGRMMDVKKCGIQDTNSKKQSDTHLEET
Experiment [5] shares this target. Nature of the experiment: FACS, 1 µg/ml isotype control, anti-CD3-activated human T cells. Background: In flow cytometry, cells or beads pass a laser one at a time.

mouse B7-H1 on J558 cells (mouse), sequence (Q9EP73 19-290): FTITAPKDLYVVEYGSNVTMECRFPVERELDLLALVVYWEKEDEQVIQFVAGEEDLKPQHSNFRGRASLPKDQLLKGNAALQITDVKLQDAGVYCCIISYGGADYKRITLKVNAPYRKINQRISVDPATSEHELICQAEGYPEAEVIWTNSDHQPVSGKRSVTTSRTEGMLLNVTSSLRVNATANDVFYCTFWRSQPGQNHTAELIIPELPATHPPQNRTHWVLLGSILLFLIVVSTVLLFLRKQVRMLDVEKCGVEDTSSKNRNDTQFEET
cynomolgus monkey B7-H1 expressed on cells (cynomolgus monkey), sequence (G7PSE7 entry or part of it): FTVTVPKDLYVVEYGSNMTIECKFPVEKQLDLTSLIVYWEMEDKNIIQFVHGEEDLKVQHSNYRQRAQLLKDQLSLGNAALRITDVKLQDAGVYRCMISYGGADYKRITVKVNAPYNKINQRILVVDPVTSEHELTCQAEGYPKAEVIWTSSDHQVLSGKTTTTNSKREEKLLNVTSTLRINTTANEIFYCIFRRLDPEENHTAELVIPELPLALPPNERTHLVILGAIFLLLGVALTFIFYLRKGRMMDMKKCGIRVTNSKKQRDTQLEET

Take irrelevant human IgG4 antibody: the geo mean was determined as 17.6 in experiment [1]; 3.2 in experiment [2]; 8.8 in experiment [3]; 10.7 in experiment [4]; 10 in experiment [5].
In the case of irrelevant human IgG2 antibody, the geo mean in experiment [2] was found to be 3.1; in experiment [3] it was 9.5; in experiment [4] it was 7.6; in experiment [5] it was 10.
